The source of these data is paper PMC5903163.

The test addresses glucose-regulated protein 78 (GRP78) (Mesocricetus auratus (endogenous in BHK-21)) (UniProt P07823).
Sequence of UniProt P07823 (P07823 19-654): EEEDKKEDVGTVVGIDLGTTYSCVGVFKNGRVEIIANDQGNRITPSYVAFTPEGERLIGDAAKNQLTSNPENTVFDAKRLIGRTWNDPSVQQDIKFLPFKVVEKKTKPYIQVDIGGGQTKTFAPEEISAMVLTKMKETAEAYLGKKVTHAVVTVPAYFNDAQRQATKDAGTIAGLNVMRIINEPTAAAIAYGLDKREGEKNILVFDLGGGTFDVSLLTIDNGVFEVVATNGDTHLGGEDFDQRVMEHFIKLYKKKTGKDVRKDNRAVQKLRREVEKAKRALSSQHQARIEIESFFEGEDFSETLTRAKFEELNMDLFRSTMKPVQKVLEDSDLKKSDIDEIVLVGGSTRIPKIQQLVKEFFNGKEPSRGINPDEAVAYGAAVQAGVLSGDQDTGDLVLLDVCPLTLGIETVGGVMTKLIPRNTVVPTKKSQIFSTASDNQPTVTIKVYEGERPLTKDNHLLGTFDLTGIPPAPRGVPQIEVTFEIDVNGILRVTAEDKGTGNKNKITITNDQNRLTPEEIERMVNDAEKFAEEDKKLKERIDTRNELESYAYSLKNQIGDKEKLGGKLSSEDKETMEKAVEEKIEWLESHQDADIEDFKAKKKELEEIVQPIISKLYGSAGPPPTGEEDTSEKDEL

“Tembusu virus (TMUV) JS804, whole virus particle (complex)” showed a TMUV RNA (qRT-PCR, 24 h) in BHK-21 cells pre-incubated with 100 μg/ml anti-GRP78 N-terminal antibody (ab32618) before infection, against rabbit IgG treated cells of 50%.
